The target of the assay is complement receptor type 3 (CR3), heterodimer of CD11b and CD18 (human) (UniProt P11215). Nature of the assay: cell-based or functional assay.

A value given as a limit tells only on which side of the number the result lay.

For the substance Bear1 anti-CD11b antibody (Immunotech), the invasion inhibition of endo- and ectocervical cells (gentamicin-resistance assay) is over 93%.

In turn, “H5A4 anti-CD11b monoclonal antibody (Developmental Studies Hybridoma Bank)” gave an invasion inhibition of endo- and ectocervical cells (gentamicin-resistance assay) of over 93%; an invasion inhibition, ectocervical cells (gentamicin-resistance assay) of 100%; an invasion inhibition, endocervical cells (gentamicin-resistance assay) of 99.9%.

Substance IB4 anti-CD18 antibody returned an invasion inhibition of endo- and ectocervical cells (gentamicin-resistance assay) of over 93%.

Source of the values: patent publication US20040253222A1.
